# Test results taken from publication PMC8070244, “The MarR-Type Regulator PA3458 Is Involved in Osmoadaptation Control in Pseudomonas aeruginosa” (International Journal of Molecular Sciences, 2021).
# Target: the molecule itself
# Test: SEC-MALS; 100 uL of 1 mg/ml sample on Superdex 200 Increase 10/300 in LEW buffer (50 mM NaH2PO4, 300 mM NaCl pH 8), room temperature, 0.5 mL/min
protein,measurement,value
"PA3458-His6 (natural protein, Pseudomonas aeruginosa PAO1161, UniProt Q9HYE8 1-157, looked up, PA3458, MarR-type transcriptional regulator of Pseudomonas aeruginosa PAO1161 (locus D3C65_07830; PAO1 ortholog PA3458), 157 residues (17.6 kDa); the gene was amplified with primers 13#/14# (forward primer begins at the ATG; 483 bp fragment) and cloned NcoI/HindIII in pET28a; it says that the gene (157 codons) was cloned as a PA3458-his6 fusion, with the forward primer starting at the ATG; Linker …) MVESNKTAADTYSLAIFRAIRRLQQAAEIHSKRLSRYGGLTPLQLLILHVLAVEGELTATQLAKLVSLSQASLSGVLDRLEGRGLLYRRRDEQDRRKSWLHLDPAGHEALAEAPPLLPEYVIERFAALPEWERHGLLAALLRAADLFGLPEEDVEEE",stoichiometry N,4
